Residue numbers refer to the chain shown, from its start. Names may count otherwise. Square brackets hold non-standard residues; d marks the D form. Ends that are not written are not given here. pT = C[C@@H](OP(=O)(O)O)[C@H](N)C(=O)O

In test [1] the target is Drosophila Numb PTB domain (aa 65-203) (Drosophila) (UniProt P16554).
The target is the same in test [2]. The source holds these as a separate data set.
Test [3] has the same target. Kind of test: ITC; Pon fragments (~0.5 mM) injected into PTB proteins (~0.05 mM); 20 °C; 50 mM Tris pH 8.0, 100 mM NaCl, 1 mM EDTA, 1 mM β-ME; one-site binding model.
The target in test [4] is T1, Numb PTB R171A (Drosophila, UniProt P16554-1 65-203, R171A).
T1 sequence: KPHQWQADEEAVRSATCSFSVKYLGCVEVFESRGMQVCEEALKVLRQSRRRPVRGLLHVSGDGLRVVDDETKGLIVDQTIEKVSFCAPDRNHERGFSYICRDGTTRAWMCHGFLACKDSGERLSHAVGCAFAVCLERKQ
The test is described as above.

The target of test [5] is Drosophila Numb PTB domain (aa 65–203), P16554-1. Kind of test: ITC. To be noted: parent: 1.80 ± 0.17.
The target in test [6] is T2, Drosophila Numb PTB domain (aa 65-203) (Drosophila, UniProt P16554-1 65-203).
T2 construct: Numb, Drosophila, PTB domain, residues 65-203; theoretical mass 15.7 kDa in the ultracentrifugation; also called dNumb PTB; Numb 65-203; source: E. coli BL21 (DE3), purified (Ni2+-NTA, SEC); not shown: His tag, N-terminal, cleaved
T2 sequence (looked up): T1 sequence with A107R
As to the kind of experiment: ITC; Pon fragments (~0.5 mM) injected into PTB proteins (~0.05 mM); 20 °C; 50 mM Tris pH 8.0, 100 mM NaCl, 1 mM EDTA, 1 mM β-ME; one-site binding model. The conditions noted are these: both partners purified.

The target of test [7] is T3, Drosophila Numb PTB domain (aa 65–203) (Drosophila, UniProt P16554-1 65-203).
T3 construct: Numb PTB domain, Drosophila, Uniprot P16554-1, aa 65-203; source: E. coli BL21 (DE3), purified (Ni2+-NTA, SEC); not shown: His tag, N-terminal, cleaved
T3 sequence (looked up): T1 sequence with A107R
Kind of test: ITC; ITC200, 20 °C, buffer A (50 mM Tris pH 8.0, 1 mM EDTA, 1 mM β-ME, 100 mM NaCl); Pon fragments (~0.5 mM) injected into PTB proteins (~0.05 mM); one-site binding model. To be noted: both partners purified.

In test [8] the target is T4, Drosophila Numb PTB domain (aa 65–203) (Drosophila, UniProt P16554-1 65-203).
T4 chain: T1 sequence with A107R
Kind of test: ITC.

In test [9] the target is T1, Numb PTB R171A. Kind of test: ITC.
In test [10] the target is T4, Drosophila Numb PTB domain (aa 65–203). As to the kind of experiment: ITC.
Test [11] concerns the target T3, Drosophila Numb PTB domain (aa 65–203). As to the kind of experiment: AUC; sedimentation velocity, 42,000 rpm, 4 °C, interference detection, SEDFIT; Numb PTB with three molar ratios of Nak AB, or with Pon A2B2. To be noted: both partners purified.

As to “Pon N-terminal fragment (aa 1–228), A1B1A2B2A3B3 (domain or fragment)”, in test [1], the in vitro phase transition, sedimentation assay: share of Numb PTB and Pon A1B3 recovered from the condensed liquid phase, 1:1 mixture, 25 to 100 μM was found to be 80%. Also, in test [2], the in vitro phase transition, sedimentation assay: share of the proteins in the condensed liquid phase against the molar ratio, highest at 1:3 Pon A1B3 to Numb PTB was > 90%.
Pon A2B2 N152P153A (domain or fragment): the Kd in test [3] was found to be 48.3 µM.
For Pon 157-200 (A3B3) (domain or fragment), the Kd in test [3] is 12.2 µM.
For the molecule Pon 130-162 (A2B2) (domain or fragment), the Kd is 1 µM in [3] and > 100 µM in the test with Numb PTB R171A [4].
For the molecule Pon A2B2 fragment N152A; P153A, the Kd in test [5] was 49.3 µM.
On to Pon 110-148 (B1A2) (domain or fragment), for which the dissociation constant (Kd) in test [3] is 8.77 µM; with Numb PTB R171A [4], > 100 µM.

B1: Pon 124-148/130-148 (A2) (domain or fragment)
chain: KKREHACFENPGLNLELPE
Turning to B1, in [6], the Kd was > 100 µM.

B2: pPon peptide (peptide)
peptide: ESCFTNAAFSS[pT]PKK
notes: Pon, Drosophila; stretch with the A1 motif FTNAAF (N57) followed by the phosphorylated threonine; limits worked out by setting the Asn of FTNAAF to N57 of the A1 motif; source: synthetic peptide (commercially synthesized)
Regarding B2, the dissociation constant Kd in test [7] was ~11 µM.

B3: Pon single-AB fragment with N152,P153A in the B2 motif (peptide)
chain: KKKKREHACFENPGLNLELPEKQFAAYEVVRSA
In the case of B3, the Kd in test [8] turned out to be 49.3 µM.

B4: Pon single-AB fragment with R158A in the B2 motif (peptide)
chain: B3 chain with A25N, A26P, R31A
With B4, in test [8], the Kd was > 100 µM.

B5: Pon A2B2 K149A (peptide)
chain: B3 chain with K22A, A25N, A26P
On to B5, for which, in test [8], the Kd came out at 5.46 µM.

B6: Pon A2B2 fragment (peptide)
chain: B3 chain with A25N, A26P
Turning to B6, the results for the Kd (with Numb PTB R171A [9]; in test [10]) were > 100 µM and 1.8 µM, respectively.

B7: Pon single-AB fragment with Y154E in the B2 motif (peptide)
chain: B3 chain with A25N, A26P, Y27E
For the molecule B7, the Kd in test [8] was > 100 µM.

B8: Pon 1-116 (A1) (domain or fragment)
chain: MLETKSIAALAFTETPRKRKRETLYKNAAPPPNPQQQPPEKDAQDAAVASTESCFTNAAFSSTPKKLMVARRRLAKENSQPNPFPGLEVKSIADLAQKQQHQQHHQQQQQQQQKLP
Turning to B8, the Kd in [6] was ~70 µM.

B9: Pon B1A2 E121A (domain or fragment)
chain: QQQQKLPTNPFAVLRQPPKKKKREHACFENPGLNLELPE
B9: the dissociation constant Kd in test [6] was > 100 µM.

B10: Pon A3B3 fragment (peptide)
chain: VRSATTPAKGFVNPALNLRGSDAPASLNPFEIHRPSEASEAACN
As for B10, the dissociation constant Kd in test [10] was determined as 12.2 µM.

B11: Pon A2B2 K148A (domain or fragment)
chain: KKREHACFENPGLNLELPEAQFNPYEVVRSATT
In turn, B11 registered a Kd in test [6] of 0.48 ± 0.02 µM.

B12: Pon A2B2 Y154E (domain or fragment)
chain: B11 chain with A20K, Y25E
For the molecule B12, in test [6], the Kd was > 100 µM.

B13: Pon A2B2 R158A (domain or fragment)
chain: B11 chain with A20K, R29A
For B13, in test [6], the equilibrium dissociation constant (Kd) is > 100 µM.

B14: pPon peptide (peptide)
peptide: ESCFTNAAFSS[pT]PKK
notes: Pon, Drosophila; the peptide holds the A1 motif FTNAAF; the range is counted from N57 of the A1 motif; source: synthetic peptide
Molecule B14 displayed a dissociation constant (Kd) in [6] of 11.3 ± 0.37 µM.

B15: Nak AB fragment (Numb-associated kinase, C-terminal A and B motifs) (peptide)
chain: QNSAKTGFSNMSFEDFPSDQEMDRLSRTIPFEVVRNEKML
In the case of B15, the “stoichiometry N” value in [11] was 1.

B16: Pon A1 (peptide)
chain: AAVASTESCFTNAAFSST
B16: the equilibrium dissociation constant (Kd) in [10] is > 70 µM.

B17: Pon 1-130/41-130 (A1B1) (domain or fragment)
chain: MLETKSIAALAFTETPRKRKRETLYKNAAPPPNPQQQPPEKDAQDAAVASTESCFTNAAFSSTPKKLMVARRRLAKENSQPNPFPGLEVKSIADLAQKQQHQQHHQQQQQQQQKLPTNPFEVLRQPPKKK
B17: in [6], binding was characterised by a dissociation constant (Kd) of 18.1 ± 2.2 µM.

B18: Pon single-AB fragment with E121A in the B1 motif (peptide)
chain: QQKLPTNPFAVLRQPPKKKKREHACFENPGLNLE
As to B18, the Kd in [8] is > 100 µM.

B19: Pon B1A2 fragment (peptide)
chain: B18 chain with A10E
Take B19: the Kd is > 100 µM with Numb PTB R171A [9] and 8.77 µM in test [10].

These data come from publication PMC5821850, “Basal condensation of Numb and Pon complex via phase transition during Drosophila neuroblast asymmetric division” (Nature Communications, 2018).
